According to article PMC8876964 (Pharmaceuticals, 2022):
Where two headings read alike, the source gives them in different places.

Experiments:
[1] = test system: serum albumin; settings: cited from earlier work
[2] = PET/CT imaging of BxPC-3 tumor-bearing mice; assay type: in vivo; settings: athymic nude, mouse, iv, 3.7 MBq, total radioactivity
Protocol: For blocking study, excess of unlabeled peptides was administered 1–2 min before radiotracer injection. The PET scans were acquired for 20 min on an Inveon small animal PET/CT scanner (Siemens Medical Solutions, Malvern, PA, USA). Static images were reconstructed with the maximum a posteriori (MAP) reconstruction algorithm and corrected for decay. Image analysis was performed using the Inveon Research Workstation image display software (Siemens). Regions of interest (ROI) were selected based on co-registered anatomical CT images, and the average or maximum standard uptake value (SUV) was calculated as the mean or maximum regional radioactivity concentration (nCi/cc) x animal weight (g)/decay-corrected amount of injected dose (nCi).

[3] = Biodistribution in normal CD-1 mice; assay type: in vivo; settings: mouse, iv, total radioactivity, 0.37 MBq i.v., n = 4–5, mean ± SD
Protocol: The comparison of non-albumin binding and albumin binding peptides were evaluated in CD-1 mice at 1, 4, 24, and 48 h. ^177Lu-labeled peptides were prepared at the specific activity of 10 MBq/nmol. Mice (n = 4–5) were intravenously injected with 0.37 MBq (10 µCi) of respective radioligands diluted in 100 μL saline and sacrificed at specified time points. Selected organs were collected, weighed, and counted for activity. The results were reported as the percentage of the injected radioactivity per gram of tissue mass (% ID/g) and the radioactivity was calibrated using a known standard.

[4] = Biodistribution in mice bearing BxPC-3 tumor xenografts; assay type: in vivo; settings: athymic nude, mouse, iv, total radioactivity, BxPC-3 tumor mice, 0.37 MBq i.v.; for tissue uptake at 1 h: 1 h p.i.; for tissue uptake at 48 h: 48 h p.i.
Protocol: Animals were supplied from Charles River Laboratories (Wilmington, MA, USA), and were handled in compliance with the Guidelines for Care and Use of Research Animals established by the Division of Comparative Medicine and the Animal Studies Committee of Washington University School of Medicine. Biodistribution studies were conducted in athymic nude mice bearing subcutaneous BxPC-3 tumors. Tumors were implanted on the right flank with 5 × 10^6 cells about 4 weeks before the performance of the experiments. Biodistribution studies were performed when the tumors reached approximately 5–7 mm in diameter. […] Tissues of interest (blood, lung, liver, spleen, kidney, muscle, heart, bone, and tumor) were collected and weighed, and the radioactivity was measured using a gamma counter. The results were expressed as the percentage of injected dose per gram of tissue (%ID/g).

[5] = test system: BxPC-3 tumors; assay: Therapy studies in BxPC-3 tumor-bearing mice; assay type: in vivo, athymic nude mice
Protocol: Therapy studies were conducted in athymic nude mice bearing BxPC-3 tumors when the tumor volume reached about 100 mm^3. […] Tumor volumes and body weights were monitored three times a week. Individual tumor size was calculated using the formula (length × width × width)/2. The mice were euthanized when the tumor reached 1500 mm^3, ulceration of >4 mm was present, or significant stress due to weight loss. […] The doses were administered via tail vein and tumor size and mouse weights were recorded three times a week. Tumor volumes were plotted versus time to determine tumor growth inhibition.

[6] = test system: DX3puroβ6 tumor; settings: mouse, in vivo; cited from earlier work
[7] = blood, n = 4–5, mean ± SD, read-out: blood uptake
[8] = n = 4–5, mean ± SD, read-out: tumor uptake

**Q.** For `O=C(O)CCCc1ccc(I)cc1` [4-(p-iodophenyl)butyric acid], which “non-covalent binding with serum albumin” value [1] is on record?
**A.** micromolar range

**Q.** For `Cc1cc(-c2ccc(/N=N/c3ccc4c(S(=O)(=O)O)cc(S(=O)(=O)O)c(N)c4c3O)c(C)c2)ccc1/N=N/c1ccc2c(S(=O)(=O)O)cc(S(=O)(=O)O)c(N)c2c1O` [Evans Blue], which “IC50 of reversible binding to serum albumin” value [1] is on record?
**A.** micromolar range

**Q.** Which results are given for `CC(C)C[C@H](NC(=O)[C@H](CC(=O)O)NC(=O)CNC(=O)[C@H](CCCNC(=N)N)NC(=O)[C@H](CC(C)C)NC(=O)[C@H](CC(N)=O)NC(=O)[C@@H]1CCCN1C(=O)[C@@H](NC(=O)[C@H](C)NC(=O)[C@H](CC(N)=O)NC(=O)CCOCCOCCOCCOCCOCCOCCOCCOCCOCCOCCOCCOCCOCCOCCOCCOCCOCCOCCOCCOCCOCCOCCOCCOCCOCCOCCOCCOCCNC(=O)CN1CCN(CC(=O)O)CCN(CC(=O)O)CCN(CC(=O)O)CC1)C(C)C)C(=O)N[C@@H](CCC(N)=O)C(=O)N[C@H](C(=O)N[C@@H](CC(C)C)C(=O)N[C@@H](C)C(=O)N[C@@H](CCC(N)=O)C(=O)N[C@@H](CCCCN)C(=O)N[C@H](C(=O)N[C@@H](C)C(=O)N[C@@H](CCCNC(=N)N)C(=O)N[C@H](C(=O)NCCOCCOCCOCCOCCOCCOCCOCCOCCOCCOCCOCCOCCOCCOCCOCCOCCOCCOCCOCCOCCOCCOCCOCCOCCOCCOCCOCCOCCC(N)=O)[C@@H](C)O)C(C)C)C(C)C` [[^68Ga]Ga-DOTA-(PEG28)2-A20FMDV2, metal not drawn]?
**A.** SUV at 1 h ([2]; mice receiving blocking agent (excess unlabeled peptide 1–2 min before), 1 h after 3.7 MBq i.v., n = 3, read-out: tumor SUVmax): 1.71 ± 0.04 SUV; SUV at 1 h ([2]; mice receiving blocking agent (excess unlabeled peptide 1–2 min before), 1 h after 3.7 MBq i.v., n = 3, read-out: tumor SUVmean): 1.22 ± 0.12 SUV; SUV at 1 h ([2]; non-block mice, 1 h after i.v. injection of 3.7 MBq, n = 3, read-out: tumor SUVmax): 3.85 ± 1.06 SUV; SUV at 1 h ([2]; non-block mice, 1 h after i.v. injection of 3.7 MBq, n = 3, read-out: tumor SUVmean): 2.77 ± 0.38 SUV

**Q.** Which tissue uptake at 1 h ([3]; blood) does the source give for `CC(C)C[C@H](NC(=O)[C@H](CC(=O)O)NC(=O)CNC(=O)[C@H](CCCNC(=N)N)NC(=O)[C@H](CC(C)C)NC(=O)[C@H](CC(N)=O)NC(=O)[C@@H]1CCCN1C(=O)[C@@H](NC(=O)[C@H](C)NC(=O)[C@H](CC(N)=O)NC(=O)CCOCCOCCOCCOCCOCCOCCOCCOCCOCCOCCOCCOCCOCCOCCOCCOCCOCCOCCOCCOCCOCCOCCOCCOCCOCCOCCOCCOCCNC(=O)CCSC1CC(=O)N(CCC(=O)NCCNC(=O)[C@H](CCCCNC(=O)CN2CCN(CC(=O)O)CCN(CC(=O)O)CCN(CC(=O)O)CC2)NC(=O)c2ccc(-c3ccc(N=Nc4ccc5c(S(=O)(=O)O)cc(S(=O)(=O)O)c(N)c5c4O)cc3)cc2)C1=O)C(C)C)C(=O)N[C@@H](CCC(N)=O)C(=O)N[C@H](C(=O)N[C@@H](CC(C)C)C(=O)N[C@@H](C)C(=O)N[C@@H](CCC(N)=O)C(=O)N[C@@H](CCCCN)C(=O)N[C@H](C(=O)N[C@@H](C)C(=O)N[C@@H](CCCNC(=N)N)C(=O)N[C@H](C(=O)NCCOCCOCCOCCOCCOCCOCCOCCOCCOCCOCCOCCOCCOCCOCCOCCOCCOCCOCCOCCOCCOCCOCCOCCOCCOCCOCCOCCOCCC(N)=O)[C@@H](C)O)C(C)C)C(C)C` (stereo partly shown) [[^177Lu]Lu-EB-DOTA-(PEG28)2-A20FMDV2, metal not drawn] here?
**A.** 5.36 ± 1.06 %ID/g

**Q.** What about the tissue uptake at 48 h ([3]; blood, 48 h p.i., read-out: blood uptake) of the same compound?
**A.** 0.41 ± 0.03 %ID/g

**Q.** And the tissue uptake at 48 h ([3]; kidney, 48 h, read-out: kidney uptake)?
**A.** 44.3 ± 5.13 %ID/g

**Q.** And the tissue uptake at 1 h [4, 7]?
**A.** 4.8 ± 0.69 %ID/g

**Q.** What about the tissue uptake at 4 h ([4]; blood, 4 h, n = 4–5, mean ± SD) of the same compound?
**A.** 1.23 ± 0.3 %ID/g

**Q.** What about the tissue uptake at 48 h [4, 7] of the same compound?
**A.** 0.28 ± 0.01 %ID/g

**Q.** What about the tissue uptake at 1 h [4, 8] of the same compound?
**A.** 5.2 ± 1.02 %ID/g

**Q.** And the tissue uptake at 48 h [4, 8]?
**A.** 4.29 ± 0.78 %ID/g

**Q.** And the tissue uptake ([4]; lung, liver, spleen, muscle, heart, bone, all time points (1, 4, 24, 48 h), read-out: uptake in normal organs such as lung, liver, spleen, muscle, heart, and bone)?
**A.** < 4 %ID/g

**Q.** And the “tumor volumes in comparison to the control group” value ([5]; single dose of 37 MBq, BxPC-3 tumor-bearing mice, n = 8, p < 0.001)?
**A.** significantly reduced

**Q.** What about the mortality ([5]; single dose of 37 MBq, two weeks after radiotracer injection) of the same compound?
**A.** death of all mice

**Q.** And the % intact in human serum?
**A.** > 90%

**Q.** What does the source list for `CC(C)C[C@H](NC(=O)[C@H](CC(=O)O)NC(=O)CNC(=O)[C@H](CCCNC(=N)N)NC(=O)[C@H](CC(C)C)NC(=O)[C@H](CC(N)=O)NC(=O)[C@@H]1CCCN1C(=O)[C@@H](NC(=O)[C@H](C)NC(=O)[C@H](CC(N)=O)NC(=O)CCOCCOCCOCCOCCOCCOCCOCCOCCOCCOCCOCCOCCOCCOCCOCCOCCOCCOCCOCCOCCOCCOCCOCCOCCOCCOCCOCCOCCNC(=O)CN1CCN(CC(=O)O)CCN(CC(=O)O)CCN(CC(=O)O)CC1)C(C)C)C(=O)N[C@@H](CCC(N)=O)C(=O)N[C@H](C(=O)N[C@@H](CC(C)C)C(=O)N[C@@H](C)C(=O)N[C@@H](CCC(N)=O)C(=O)N[C@@H](CCCCN)C(=O)N[C@H](C(=O)N[C@@H](C)C(=O)N[C@@H](CCCNC(=N)N)C(=O)N[C@H](C(=O)NCCOCCOCCOCCOCCOCCOCCOCCOCCOCCOCCOCCOCCOCCOCCOCCOCCOCCOCCOCCOCCOCCOCCOCCOCCOCCOCCOCCOCCC(N)=O)[C@@H](C)O)C(C)C)C(C)C` [metal not drawn]?
**A.** tissue uptake at 1 h ([3]; blood): 0.11 ± 0.04 %ID/g; body weight change ([5]; 27.8 MBq, n = 8, during the course of the study): no significant weight loss; tumor inhibition in comparison to control group ([5]; 27.8 MBq, n = 8, until day 23 (p < 0.001 for the IBA peptide)): did not show significant tumor growth inhibition

**Q.** With NAVPNLRGDLQVLAQKVART [A20FMDV2] as the compound, how does the tumor uptake [6] read?
**A.** 0.66 ± 0.09 % ID/g
